According to patent US20100233154A1, “TARGETED BINDING AGENTS DIRECTED TO HEPARANASE AND USES THEREOF 463” (MedImmune Limited, priority 2008, published 2010):

Tests used:
[1] = biological target: T1, murine heparanase (Mus musculus, UniProt Q6YGZ1); test: Cross species capture ELISA, murine heparanase; format: binding; details: min 0.06, max 0.9 OD units
T1 construct: made in house; host or cells: Hek293 cells (conditioned medium), inferred for the ELISA
T1 sequence (Q6YGZ1 28-535): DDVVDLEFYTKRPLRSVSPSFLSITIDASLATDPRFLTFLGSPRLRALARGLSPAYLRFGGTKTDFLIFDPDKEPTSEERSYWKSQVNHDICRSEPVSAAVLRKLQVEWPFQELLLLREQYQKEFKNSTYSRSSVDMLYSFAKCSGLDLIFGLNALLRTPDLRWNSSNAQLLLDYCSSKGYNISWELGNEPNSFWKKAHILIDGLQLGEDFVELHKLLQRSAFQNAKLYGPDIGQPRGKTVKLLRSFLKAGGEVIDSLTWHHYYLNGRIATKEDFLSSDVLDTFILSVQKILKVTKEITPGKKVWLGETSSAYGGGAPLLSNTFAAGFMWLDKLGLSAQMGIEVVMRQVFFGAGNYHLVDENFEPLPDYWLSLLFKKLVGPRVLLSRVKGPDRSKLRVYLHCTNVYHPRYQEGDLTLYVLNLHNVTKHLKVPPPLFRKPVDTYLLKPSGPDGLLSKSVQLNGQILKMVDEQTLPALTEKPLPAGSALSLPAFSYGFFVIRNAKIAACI
Experimental: (§1) Initially, cross species binding to human, murine and cynomolgus heparanase was determined in an ELISA assay in which heparanase was captured onto plates using a rabbit anti-heparanase antibody (Raybiotech, Cat. IP-14-155). Exhaustive supernatants were added to the plates at a final dilution of 1:5 and bound antibody detected with a rabbit anti-human IgG Fc.

[2] = biological target: T2, recombinant human heparanase (Homo sapiens, UniProt Q9Y251); test: ELISA binding to directly coated recombinant human heparanase
T2 construct: Heparanase 8 and 50 kDa sub-units were cloned into pacGP67 as Sma 1-EcoR1 fragments; made in house; host or cells: Hi5 insect cells, baculovirus (pFastBac Dual)
T2 sequence (Q9Y251 158-543 limits assumed): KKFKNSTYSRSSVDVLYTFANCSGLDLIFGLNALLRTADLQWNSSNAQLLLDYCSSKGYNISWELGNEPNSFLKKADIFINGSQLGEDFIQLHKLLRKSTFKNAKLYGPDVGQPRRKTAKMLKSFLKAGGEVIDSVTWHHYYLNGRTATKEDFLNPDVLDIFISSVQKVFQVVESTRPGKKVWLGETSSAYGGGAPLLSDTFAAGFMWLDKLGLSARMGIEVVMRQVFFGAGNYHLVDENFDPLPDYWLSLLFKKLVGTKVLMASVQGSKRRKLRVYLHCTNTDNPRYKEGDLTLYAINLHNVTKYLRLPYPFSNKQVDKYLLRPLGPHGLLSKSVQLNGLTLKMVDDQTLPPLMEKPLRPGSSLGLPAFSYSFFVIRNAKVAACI
T2 sequence (Q9Y251 36-109 limits assumed): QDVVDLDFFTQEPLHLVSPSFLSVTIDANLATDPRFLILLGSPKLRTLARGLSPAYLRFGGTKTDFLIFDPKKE
Experimental: (§2) Titres of antibodies from Campaigns 1 and 2 were determined in an ELISA. Costar 3368 medium binding plates were coated directly with recombinant human heparanase or plates were coated with Rabbit anti-heparanase antibody (Raybiotech, Cat. IP-14-155) to capture recombinant heparanase. Directly coated heparanase was detected in three separate plates by mouse (InSight Cat. INS-26-1-0000), goat (Santa Cruz, Cat. sc26136) or rabbit (Raybiotech, Cat. IP-14-155) anti-heparanase antibodies, and quantified using appropriate secondary antibodies. Antibody captured heparanase was detected using mouse anti-heparanase (Insight Cat. INS-26-1-0000). At the end of the immunisation program, fusions were performed using mouse myeloma cells and lymphocytes isolated from the spleens and lymph nodes of the immunised mice by means of electroporation, as described in Example 2.
(§3) Initial screening to detect antibodies binding to human heparanase in both direct coating and antibody capture ELISAs as described above identified 800 hybridomas for further testing; 535 IgG2 from Campaign 1 and 2 and 265 IgG4 from Campaign 2. Enzyme inhibition assays and cross species binding to cynomolgus and murine heparanase, in an antibody capture ELISA, identifed 12 antibodies that were taken forward for sub-cloning to provide purified antibodies for further analysis. Subsequently, confirmation of activity against human heparanase (FIGS. 3 and 4) and inhibition of recombinant cynomolgus and murine heparanase activity in the HS-cryptate degradation assay (FIG. 5a-c), together with sequence analysis, identified 8 antibodies that are described in the table below.

[3] = system: MDA MB231-Hpa1#4 cells; test: Heparanase expression in cells cultured with antibody (Western blot); format: cell-based, human; details: 25 μg per ml antibody, 72 hrs, compared to untreated or IgG2 control
Experimental: MDA MB231-Hpa1#4 cells were cultured in the presence of 25 μg per ml anti-human heparanase antibody or control IgG2 antibody (Sigma Cat. No. 1504-1MG) for 72 hrs. Following the removal of culture medium, protein extracts were prepared from the cells in 100 μl RIPA buffer and separated on […] gels and transferred to nitrocellulose as described above. Western blots were probed with an anti-heparanase antibody that detected only pro-heparanase (SantaCruz Cat. No. SC25825).

[4] = biological target: T3, recombinant heparanase captured with rabbit anti-heparanase antibody (Homo sapiens, UniProt Q9Y251); test: ELISA binding to antibody-captured heparanase; details: antibody capture
T3 construct: Heparanase 8 and 50 kDa sub-units were cloned into pacGP67 as Sma 1-EcoR1 fragments; made in house; host or cells: Hi5 insect cells, baculovirus (pFastBac Dual)
T3 sequence (Q9Y251 158-543 limits assumed): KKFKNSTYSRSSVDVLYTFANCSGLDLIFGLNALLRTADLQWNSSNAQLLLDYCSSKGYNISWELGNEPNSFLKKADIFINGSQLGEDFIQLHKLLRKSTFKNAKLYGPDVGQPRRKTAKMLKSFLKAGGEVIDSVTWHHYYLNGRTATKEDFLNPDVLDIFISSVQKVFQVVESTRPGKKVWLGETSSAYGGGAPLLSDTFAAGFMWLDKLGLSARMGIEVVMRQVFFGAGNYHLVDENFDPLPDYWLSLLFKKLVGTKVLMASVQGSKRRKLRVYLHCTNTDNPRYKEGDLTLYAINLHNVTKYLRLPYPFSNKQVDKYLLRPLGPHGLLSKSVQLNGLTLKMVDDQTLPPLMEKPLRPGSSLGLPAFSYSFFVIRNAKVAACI
T3 sequence (Q9Y251 36-109 limits assumed): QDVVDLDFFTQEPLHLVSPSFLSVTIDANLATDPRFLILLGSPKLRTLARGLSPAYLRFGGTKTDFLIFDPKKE
Experimental: as §2, §3

[5] = biological target: T4, human heparanase (Homo sapiens, UniProt Q9Y251); test: Cross species capture ELISA, human heparanase; format: binding
T4 sequence (Q9Y251 36-543): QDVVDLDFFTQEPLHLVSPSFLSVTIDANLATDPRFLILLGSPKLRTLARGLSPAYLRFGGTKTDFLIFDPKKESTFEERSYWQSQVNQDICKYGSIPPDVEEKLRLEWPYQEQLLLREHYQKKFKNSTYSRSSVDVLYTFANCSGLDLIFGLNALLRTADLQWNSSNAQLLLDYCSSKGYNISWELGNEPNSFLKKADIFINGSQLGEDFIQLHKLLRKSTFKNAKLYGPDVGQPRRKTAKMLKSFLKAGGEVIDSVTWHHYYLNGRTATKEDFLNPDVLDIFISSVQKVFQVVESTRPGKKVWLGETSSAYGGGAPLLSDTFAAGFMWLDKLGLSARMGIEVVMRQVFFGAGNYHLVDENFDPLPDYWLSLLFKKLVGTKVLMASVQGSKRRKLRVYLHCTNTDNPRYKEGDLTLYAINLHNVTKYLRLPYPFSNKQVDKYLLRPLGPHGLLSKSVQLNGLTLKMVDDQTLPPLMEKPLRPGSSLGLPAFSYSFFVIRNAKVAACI
Experimental: as §1

[6] = biological target: T5, Recombinant Hpa1 (Homo sapiens, UniProt Q9Y251); test: Medium resolution Biacore affinity; format: binding; details: purified antibody captured on CM4 chip; Hpa1 1 nM and 10 nM; 25° C.
T5 construct: Heparanase 8 and 50 kDa sub-units were cloned into pacGP67 as Sma 1-EcoR1 fragments; made in house; host or cells: Hi5 insect cells, baculovirus (pFastBac Dual)
T5 sequence (Q9Y251 158-543 limits assumed): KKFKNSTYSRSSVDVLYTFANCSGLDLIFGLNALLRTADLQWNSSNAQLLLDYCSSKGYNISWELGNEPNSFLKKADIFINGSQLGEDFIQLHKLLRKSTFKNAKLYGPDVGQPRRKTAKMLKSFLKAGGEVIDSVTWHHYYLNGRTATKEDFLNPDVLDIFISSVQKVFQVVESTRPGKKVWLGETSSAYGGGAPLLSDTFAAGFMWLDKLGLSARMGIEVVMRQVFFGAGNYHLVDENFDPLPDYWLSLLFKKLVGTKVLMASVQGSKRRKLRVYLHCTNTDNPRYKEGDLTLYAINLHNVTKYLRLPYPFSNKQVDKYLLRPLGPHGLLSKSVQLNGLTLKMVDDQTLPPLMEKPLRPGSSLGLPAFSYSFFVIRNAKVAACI
T5 sequence (Q9Y251 36-109 limits assumed): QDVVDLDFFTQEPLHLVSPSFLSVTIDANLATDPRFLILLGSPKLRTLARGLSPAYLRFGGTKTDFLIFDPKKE
Experimental: For medium resolution Biacore™ tests, cloned and purified antibodies were used. Each of three purified antibodies (10E9.1, 15A1.2, and 15A11.1) were captured onto a high-density goat anti-human antibody surface over a CM4 Biacore™ chip. Recombinant Hpa1 was diluted to the desired concentration (1 nM and 10 nM) in 10 mM HEPES, 150 mM NaCl, 0.005% tween-20, 0.1 mg per ml BSA pH7.4 (25° C.) immediately prior to injection. Data were fit globally to a 1:1 interaction model with a term for mass transport included. The resulting KD values are summarised below in Table 4.

[7] = system: cynomolgus heparanase; test: Cross species capture ELISA, cynomolgus heparanase; format: binding; details: min 0.06, max 1.5 OD units
Experimental: as §1

[8] = system: HCT116 xenograft; test: Subcutaneous xenograft tumour growth, HCT116; format: in vivo, SCID mice; details: once weekly i.p.; 10E9.1 at 15 mg per kg
Experimental: (§4) MCF7-Hpa1#19 and HCT116 tumour cells were harvested from sub-confluent cultures. A total of 5×10^6 (MCF7-Hpa1#19) or 10^7 (HCT116) tumour cells were inoculated subcutaneously into the flank of male SCID mice. HCT116 tumour cells were implanted in PBS; […] cells were implanted in PBS containing 50% matrigel.
(§5) When tumours had attained ˜200 mm^3, tumour bearing mice were randomised into treatment groups and dosed with the following; PBS; an isotype matched control IgG2 antibody, 15 mg per kg; anti-heparanase antibody 10E9.1, 7.5 or 15 mg per kg. All treatments were administered once weekly i.p. Tumour growth was measured twice per week using calipers and tumour volumes calculated according to an ellipsoid volume is formula (3.142/6×length×width×width) from measures of the largest tumour diameter and two opposing widths (FIG. 11).

[9] = system: MCF7-Hpa1#19 xenograft; test: Subcutaneous xenograft tumour growth, MCF7-Hpa1#19; format: in vivo, SCID mice; details: once weekly i.p.; 10E9.1 at 7.5 or 15 mg per kg
Experimental: as §4, §5

Binding to heparanase Mouse [1]: 0.17 OD units
Binding to direct coated heparanase [2]: 0.07 OD units
Binding to captured heparanase [4]: 0.5 OD units
Binding to heparanase Human [5]: 0.21 OD units
ka [6]: 3.6e+06 M⁻¹ s⁻¹
kd [6]: 0.000309 s⁻¹
Binding to heparanase Cyno [7]: 0.14 OD units
B1: 15A11.1: fully human anti-heparanase monoclonal antibody, G2κ; VH SEQ ID NO 10, VL SEQ ID NO 12; ATCC PTA-9490 (antibody, listed as Homo Sapiens, V domains shown)
VH: QVQLVQSGAEVKKPGASVKVSCKVSGDTLTELSMHWVRQTPGKGLEWMGGFDPEDGETIYAQKFQGRVTMTGDTSTDTAYMELSSLRSEDTAVYYCATEGDYGDSEEYYYYYGMDVWGQGTTVTVSS
VL: DIQMTQSPSSLSASVGDRVTITCRASQGISNYLAWYQQKPGKVPKLLIYAASTLQSGVPSRFSGSGSGTDFTLTISSLQPEDVATYYCQKYNRAPFTFGPGTKVDIK
notes: fully human anti-heparanase monoclonal antibody, G2κ; ATCC PTA-9490
Inhibition of heparanase expression [3]: significant inhibition of heparanase expression
Tumour growth inhibition [8]: not inhibited
Tumour growth inhibition [9]: not inhibited
